Assay results reported in publication PMC2121072.

Biological target: full-length GST-hDlg fusion protein (human) (UniProt Q12959)
Assay: pull-down

full-length GST-hDlg fusion protein (human), sequence (Q12959 whole entry, the tested form may be a part): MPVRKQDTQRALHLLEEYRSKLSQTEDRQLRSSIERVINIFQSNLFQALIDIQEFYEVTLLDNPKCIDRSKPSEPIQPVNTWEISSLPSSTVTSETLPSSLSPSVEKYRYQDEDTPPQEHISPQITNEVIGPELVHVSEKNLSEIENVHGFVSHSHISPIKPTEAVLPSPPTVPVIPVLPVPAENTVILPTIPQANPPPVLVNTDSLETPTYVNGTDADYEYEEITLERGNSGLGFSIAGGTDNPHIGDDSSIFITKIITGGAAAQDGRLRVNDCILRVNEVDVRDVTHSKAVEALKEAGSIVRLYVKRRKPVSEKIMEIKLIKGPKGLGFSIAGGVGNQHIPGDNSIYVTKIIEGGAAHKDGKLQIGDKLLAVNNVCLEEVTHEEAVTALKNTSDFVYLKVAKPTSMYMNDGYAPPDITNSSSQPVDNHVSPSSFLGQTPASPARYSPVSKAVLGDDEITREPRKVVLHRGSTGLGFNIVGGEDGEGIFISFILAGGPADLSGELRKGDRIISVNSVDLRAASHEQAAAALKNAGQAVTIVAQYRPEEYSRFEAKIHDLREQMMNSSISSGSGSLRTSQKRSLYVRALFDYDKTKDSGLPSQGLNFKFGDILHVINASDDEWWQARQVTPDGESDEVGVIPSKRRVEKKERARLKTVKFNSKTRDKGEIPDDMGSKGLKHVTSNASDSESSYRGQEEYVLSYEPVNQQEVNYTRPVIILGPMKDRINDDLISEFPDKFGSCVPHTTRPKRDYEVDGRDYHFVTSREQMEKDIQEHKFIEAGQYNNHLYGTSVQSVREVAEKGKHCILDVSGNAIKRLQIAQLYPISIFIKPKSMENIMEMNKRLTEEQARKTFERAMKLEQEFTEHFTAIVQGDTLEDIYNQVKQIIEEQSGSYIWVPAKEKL

Kd: 5.3 nM
Substance: 125I-labeled 30-kD amino-terminal domain of protein 4.1 (domain or fragment)
